Measured values from patent CN117836322A.

target: SARS-CoV-2 RBD结构域 (wild type) (SARS-CoV-2); experiment: SPR (Biacore), antibody coupled to CM5 chip, viral protein as analyte, 25°C; settings: remark: other sources report otherwise

Binder	Kd [nM]
Cv2.1353 IgG1 (antibody) heavy: EVQLVESGGGLVQPGGSLRLSCAASGVTVSSNYMNWVRQAPGKGLEWVSVIYSGGSTFYADSVKGRFIISRDNSKNTLYLQMNSLKTEDTAVYYCARDLGPMGFDIWGQGTMVTVSSASTKGPSVFPLAPSSKSTSGGTAALGCLVKDYFPEPVTVSWNSGALTSGVHTFPAVLQSSGLYSLSSVVTVPSSSLGTQTYICNVNHKPSNTKVDKKVEPKSCDKTHTCPPCPAPELLGGPSVFLFPPKPKDTLMISRTPEVTCVVVDVSHEDPEVKFNWYVDGVEVHNAKTKPREEQYNSTYRVVSVLTVLHQDWLNGKEYKCKVSNKALPAPIEKTISKAKQPREPQVYTLPPSRDELTKNQVSLTCLVKGFYPSDIAVEWESNGQPENNYKTTPPVLDSDGSFFLYSKLTVDKSRWQQGNVFSCSVMHEALHNHYTQKSLSLSPGK light: DIQMTQSPSFLSASVGDRVTITCRASQGISSYLAWYQQKPGKAPKLLIYAASTLQSGVPSRFSGSGSGTEFTLTISSLQPEDFATYYCQQLNSDPPVTFGPGTKVDIKRTVAAPSVFIFPPSDEQLKSGTASVVCLLNNFYPREAKVQWKVDNALQSGNSQESVTEQDSKDSTYSLSSTLTLSKADYEKHKVYACEVTHQGLSSPVTKSFNRGEC	< 1000
Cv2.3194 IgG1 (antibody) heavy: EVQLVESGGGLIQPGGSLRLSCAASGITVTSNYMSWVRQAPGKGLEWVSVIYPGGSTFYADSVKGRFTISRDNSKNTLYLQMNSLRAEDTAVYYCARDLVVYGMDVWGQGTTVTVSSASTKGPSVFPLAPSSKSTSGGTAALGCLVKDYFPEPVTVSWNSGALTSGVHTFPAVLQSSGLYSLSSVVTVPSSSLGTQTYICNVNHKPSNTKVDKKVEPKSCDKTHTCPPCPAPELLGGPSVFLFPPKPKDTLMISRTPEVTCVVVDVSHEDPEVKFNWYVDGVEVHNAKTKPREEQYNSTYRVVSVLTVLHQDWLNGKEYKCKVSNKALPAPIEKTISKAKQPREPQVYTLPPSRDELTKNQVSLTCLVKGFYPSDIAVEWESNGQPENNYKTTPPVLDSDGSFFLYSKLTVDKSRWQQGNVFSCSVMHEALHNHYTQKSLSLSPGK light: EIVLTQSPGTLSLSPGERATLSCRASQSVSSSYLAWYQQKPGQAPRLLIYGASSRATGIPGRFSGSGSGTDFTLTISRLEPEDFAIYYCQQGVTFGGGTKVEIKRTVAAPSVFIFPPSDEQLKSGTASVVCLLNNFYPREAKVQWKVDNALQSGNSQESVTEQDSKDSTYSLSSTLTLSKADYEKHKVYACEVTHQGLSSPVTKSFNRGEC	< 1000
Cv2.5213 IgG1 (antibody) heavy: EVQLVESGGGLIQPGGSLRLSCAASGFTVSSNYMSWVRQAPGKGLEWVSLIYSGGSTYYADSVKGRFTISRDNSKNTLYLQMNSLRAEDTAVYYCARDLNYYGMDVWGQGATVTVSSASTKGPSVFPLAPSSKSTSGGTAALGCLVKDYFPEPVTVSWNSGALTSGVHTFPAVLQSSGLYSLSSVVTVPSSSLGTQTYICNVNHKPSNTKVDKKVEPKSCDKTHTCPPCPAPELLGGPSVFLFPPKPKDTLMISRTPEVTCVVVDVSHEDPEVKFNWYVDGVEVHNAKTKPREEQYNSTYRVVSVLTVLHQDWLNGKEYKCKVSNKALPAPIEKTISKAKQPREPQVYTLPPSRDELTKNQVSLTCLVKGFYPSDIAVEWESNGQPENNYKTTPPVLDSDGSFFLYSKLTVDKSRWQQGNVFSCSVMHEALHNHYTQKSLSLSPGK light: not shown	< 1000
Cv2.3235 IgG1 (antibody) heavy: EVQLVESGGGLIQPGGSLRLSCAASGFTVSRNYMSWVRQAPGKGLEWVSVIYSGGSTFYADSVKGRFTISRDNSKNTLYLQMNSLRAEDTAVYYCARDGDYYGMDVWGQGTTVTVSSASTKGPSVFPLAPSSKSTSGGTAALGCLVKDYFPEPVTVSWNSGALTSGVHTFPAVLQSSGLYSLSSVVTVPSSSLGTQTYICNVNHKPSNTKVDKKVEPKSCDKTHTCPPCPAPELLGGPSVFLFPPKPKDTLMISRTPEVTCVVVDVSHEDPEVKFNWYVDGVEVHNAKTKPREEQYNSTYRVVSVLTVLHQDWLNGKEYKCKVSNKALPAPIEKTISKAKQPREPQVYTLPPSRDELTKNQVSLTCLVKGFYPSDIAVEWESNGQPENNYKTTPPVLDSDGSFFLYSKLTVDKSRWQQGNVFSCSVMHEALHNHYTQKSLSLSPGK light: DIQMTQSPSFLSASVGDRVTITCRASQGISSFLAWYQQKPGKAPKLLIYGASTLQSGVTSRFSGSGSGTEFTLTISSLQPEDFATYYCQRLDSYPPITFGQGTRLEIKRTVAAPSVFIFPPSDEQLKSGTASVVCLLNNFYPREAKVQWKVDNALQSGNSQESVTEQDSKDSTYSLSSTLTLSKADYEKHKVYACEVTHQGLSSPVTKSFNRGEC	< 1000
